Assay results published in the supplement of paper PMC10126150.
± gives the standard deviation of the averaged measurements.

tested on: ATP; experiment: switch fluorescence ratio, 500 uM ATP over buffer (Cy3 cluster intensity, sum of 5 cycles each) (fold (ratio)); higher = stronger signal-on switching upon ATP binding; sequences stand for … in TCGTCGGCAGCGTCAGATGTGTATAAGAGACAGTTTTTTTTTTTTTTTTTTTTTTTTT…TC; settings: aptamer strand: ATP DNA aptamer (quencher-CACCTGGGGGAGTATTGCGGAGGAAGG + anchor), 100 nM annealed; ATP concentration: 500 uM
Outline: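 Values give the fluorescence ratio for each switch-domain sequence, averaged from per-cluster ratios of summed target-cycle to summed buffer-cycle Cy3 intensity. The Cy3-labelled switching-strand clusters sat on a modified Illumina MiSeq flow-cell, were annealed to 100 nM quencher-labelled ATP aptamer, and were imaged in selection buffer, then after 15 min with 500 uM ATP at 22 °C. Five cycles ran with NaOH stripping and re-annealing between them, and clusters outside 100-1000 RFU were excluded.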
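Also: ATP exposure 15 min at 22 °C before imaging.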

GGGGTGAGGT and AAGGTCTTAG are within error of each other in switch fluorescence ratio: 0.997 ± 0.016 for the first, 0.968 ± 0.039 for the second.

GCAGTTAAGT and AACGTGGGGC are within error of each other in switch fluorescence ratio: 1 ± 0.037 for the first, 1.01 ± 0.05 for the second.

TTTATGAAAT and ATGAGGTGCT are within error of each other in switch fluorescence ratio: 1.12 ± 0.19 for the first, 1.02 ± 0.032 for the second.

TGCGCAGCGG and CGTATCATTG are within error of each other in switch fluorescence ratio: 1.005 ± 0.0094 for the first, 0.997 ± 0.042 for the second.

GTAAGATATT and CGGGGAACTC are within error of each other in switch fluorescence ratio: 0.9994 ± 0.0098 for the first, 1.06 ± 0.056 for the second.

TAGTTGGGCG and GATAACTGAA are within error of each other in switch fluorescence ratio: 0.984 ± 0.098 for the first, 1.068 ± 0.0072 for the second.

TGGAGCGGGA and GGGGACGAAT are the same in switch fluorescence ratio: 1 ± 0.022 for the first, 1.002 ± 0.0025 for the second.

GGGTAAGGCT and ATGGGCTCTT are within error of each other in switch fluorescence ratio: 1.01 ± 0.032 for the first, 1.04 ± 0.049 for the second.

TTTTAGCTGG and TAAAGTGGCT are within error of each other in switch fluorescence ratio: 1 ± 0.015 for the first, 0.985 ± 0.03 for the second.

TTTTCATGTG and AGTTGGTTAT are within error of each other in switch fluorescence ratio: 0.995 ± 0.027 for the first, 0.974 ± 0.022 for the second.

ATTTATATAT and GGTAACAGGG are within error of each other in switch fluorescence ratio: 1 ± 0.05 for the first, 1.02 ± 0.032 for the second.

ATGAATGGGG and AGCTAGGGGA are within error of each other in switch fluorescence ratio: 1.01 ± 0.072 for the first, 1.08 ± 0.077 for the second.

Compared with AGAGGCTTGG, GCGCAGTCGG is higher in switch fluorescence ratio: 0.997 ± 0.014 for the first, 1.034 ± 0.0048 for the second.

Compared with CCGTGAGGTG, GCGGGGTTTG is lower in switch fluorescence ratio: 1.135 ± 0.01 for the first, 1.01 ± 0.015 for the second.

GTAGTAGCGG and AGGACGGCCA are within error of each other in switch fluorescence ratio: 1.02 ± 0.025 for the first, 0.998 ± 0.021 for the second.

GGGGTCTAAT and GTTACTGCGG are within error of each other in switch fluorescence ratio: 0.999 ± 0.048 for the first, 0.98 ± 0.021 for the second.

GGCTGGATGG and TTGGTTTAAG are within error of each other in switch fluorescence ratio: 0.961 ± 0.014 for the first, 1 ± 0.027 for the second.

GATGTCCCAG and CGATAGAAGT are within error of each other in switch fluorescence ratio: 1 ± 0.017 for the first, 1.01 ± 0.016 for the second.

GAGTTCAATG and GTGGCTGGGT are within error of each other in switch fluorescence ratio: 1.01 ± 0.03 for the first, 0.981 ± 0.015 for the second.

Going from ACAATAAAAG to CAATAATGTG, the switch fluorescence ratio falls from 1.05 ± 0.044 to 0.968 ± 0.034.

GTGGGACAGC and CAAAGAGCTT are within error of each other in switch fluorescence ratio: 1.02 ± 0.052 for the first, 1 ± 0.028 for the second.

AGTGAGAGGA and GGGTAAATGC are within error of each other in switch fluorescence ratio: 0.9804 ± 0.007 for the first, 1.01 ± 0.1 for the second.

First: AATGTTTTTT
Second: CGACGTTCAC
The switch fluorescence ratio of the first is lower: 1 ± 0.016 for the first, 1.96 ± 0.051 for the second.

TAGAAAGACT and ACGCTTGTGC are within error of each other in switch fluorescence ratio: 1.07 ± 0.067 for the first, 1.08 ± 0.042 for the second.

TTCGGGGTCT and CAGTGTTCCG are within error of each other in switch fluorescence ratio: 1.014 ± 0.0098 for the first, 0.977 ± 0.042 for the second.

TAAAAGGGAC and AAAGTCGCGC are the same in switch fluorescence ratio: 1.01 ± 0.028 for the first, 1.01 ± 0.018 for the second.

AGCATAATTG and TTTTGATAGT are within error of each other in switch fluorescence ratio: 1.01 ± 0.0076 for the first, 0.991 ± 0.026 for the second.

Compared with AGAGGGTGAC, TGTCCCAAGC is higher in switch fluorescence ratio: 1.01 ± 0.016 for the first, 1.18 ± 0.03 for the second.

GATTGGGTGT and GATTAATCTG are within error of each other in switch fluorescence ratio: 1.03 ± 0.054 for the first, 0.962 ± 0.015 for the second.

GCCCTTGGTT and TGTAATTTTC are within error of each other in switch fluorescence ratio: 1.02 ± 0.074 for the first, 1.05 ± 0.12 for the second.

Compared with GTAGCGGCTG, TTGTTTGGTT is lower in switch fluorescence ratio: 1.037 ± 0.01 for the first, 0.983 ± 0.034 for the second.

TCTGACAGTT and CGGCTGGGGA are within error of each other in switch fluorescence ratio: 1.04 ± 0.029 for the first, 1.03 ± 0.017 for the second.

GTTGTAAGCA and AAGGCACTTT are within error of each other in switch fluorescence ratio: 0.982 ± 0.053 for the first, 1.02 ± 0.013 for the second.

TAGTTATTAG and TCGTTACCCT are within error of each other in switch fluorescence ratio: 1 ± 0.04 for the first, 1.02 ± 0.011 for the second.

CGGGGTTGCA and TAAGATAGTA are within error of each other in switch fluorescence ratio: 0.978 ± 0.022 for the first, 0.993 ± 0.023 for the second.

GGGGAAATGG and GGGGTGCGCG are within error of each other in switch fluorescence ratio: 1.01 ± 0.025 for the first, 0.968 ± 0.025 for the second.

AAAGGGTAAG and ACTTGCGGCT are within error of each other in switch fluorescence ratio: 0.975 ± 0.015 for the first, 1 ± 0.05 for the second.

GCGGCTAGTC and CGCTTTAGGT are within error of each other in switch fluorescence ratio: 1.012 ± 0.0064 for the first, 1.02 ± 0.012 for the second.

AAGTTTGTGT and AGCAGTTGGG are within error of each other in switch fluorescence ratio: 1.02 ± 0.0045 for the first, 1.03 ± 0.065 for the second.

TTTATTGGGC and TTCAGGGGTA are within error of each other in switch fluorescence ratio: 0.988 ± 0.053 for the first, 1.02 ± 0.033 for the second.

TTCGTGACTT and CTCCTTTTAT are within error of each other in switch fluorescence ratio: 1.02 ± 0.025 for the first, 1.03 ± 0.029 for the second.

TCGGGGCGTG and AAGGGAAGT are within error of each other in switch fluorescence ratio: 1 ± 0.027 for the first, 1.02 ± 0.034 for the second.

GTGAGTCGGG and TCGGTTTCG are within error of each other in switch fluorescence ratio: 0.987 ± 0.02 for the first, 0.989 ± 0.095 for the second.

TTTTTAAGGA and TAAAGTAGTT are within error of each other in switch fluorescence ratio: 1.04 ± 0.048 for the first, 1.01 ± 0.044 for the second.

First: GAAAGAAGTC
Second: TAGCTGGCAC
The switch fluorescence ratio of the first is higher: 1.05 ± 0.02 for the first, 1.02 ± 0.0034 for the second.

AAGGGTGGGG and TGGGCGAAGG are within error of each other in switch fluorescence ratio: 1 ± 0.058 for the first, 0.9702 ± 0.0071 for the second.

GCTTGTTATG and GAATGACCGT are within error of each other in switch fluorescence ratio: 0.9931 ± 0.007 for the first, 1.01 ± 0.024 for the second.

ATAGAAAGGG and GCGACATCGT are within error of each other in switch fluorescence ratio: 1.02 ± 0.063 for the first, 1.027 ± 0.0091 for the second.

AGCTATTGGG and CATTGTTAAT are within error of each other in switch fluorescence ratio: 0.975 ± 0.045 for the first, 1.01 ± 0.04 for the second.

Going from ACGCGGACAC to AAATAATTTC, the switch fluorescence ratio falls from 1.22 ± 0.065 to 1 ± 0.027.

AAATGGTTCC and TCAATTATAC are within error of each other in switch fluorescence ratio: 1.72 ± 1 for the first, 1.94 ± 0.41 for the second.

CCCATTTTGT and AGGCTGGGGG are within error of each other in switch fluorescence ratio: 0.991 ± 0.02 for the first, 0.996 ± 0.013 for the second.

GGGTTGTTGG and GTGTTTGGCG are within error of each other in switch fluorescence ratio: 0.9963 ± 0.0015 for the first, 0.9981 ± 0.0051 for the second.

TGCCGGGTCT and TAAGAAAGTT are within error of each other in switch fluorescence ratio: 0.988 ± 0.04 for the first, 1.41 ± 0.58 for the second.

TCAGTCTGCC and AAAAACTTGT are the same in switch fluorescence ratio: 1.03 ± 0.052 for the first, 1.03 ± 0.034 for the second.

Going from CACTCGCCTC to GATAGTAGTT, the switch fluorescence ratio falls from 1.134 ± 0.0068 to 0.9851 ± 0.0096.

Going from TAAATAATCG to GACGGAGAGA, the switch fluorescence ratio rises from 0.968 ± 0.038 to 1.23 ± 0.029.

TCACTATTTA and GTTGGGGGTT are the same in switch fluorescence ratio: 1.013 ± 0.0082 for the first, 1.01 ± 0.042 for the second.

ATGGGGTGGT and TTGGGGTATT are within error of each other in switch fluorescence ratio: 0.993 ± 0.025 for the first, 1.01 ± 0.025 for the second.

CAATGGGGTT and ATGATGGAAG are within error of each other in switch fluorescence ratio: 1.02 ± 0.027 for the first, 0.982 ± 0.015 for the second.

ATGGTGGCCG and GATGGGAGGG are within error of each other in switch fluorescence ratio: 0.997 ± 0.026 for the first, 0.99 ± 0.027 for the second.

ATTTTTACCT and TAACAGGCGG are within error of each other in switch fluorescence ratio: 1.08 ± 0.19 for the first, 0.991 ± 0.028 for the second.

AGTTTTGCTC and AAACTGGGAT are within error of each other in switch fluorescence ratio: 0.981 ± 0.012 for the first, 1.01 ± 0.033 for the second.

TGGGAGGTTT and AGCTCATCGC are the same in switch fluorescence ratio: 1.05 ± 0.18 for the first, 1.05 ± 0.023 for the second.

ATTAGTACTT and TTCGGGTCGG are within error of each other in switch fluorescence ratio: 0.987 ± 0.015 for the first, 0.991 ± 0.026 for the second.

ATAAAACATG and GATCGAGAGG are within error of each other in switch fluorescence ratio: 0.9785 ± 0.0055 for the first, 0.98 ± 0.025 for the second.

TTTTCCAATG and GTGGGACAGG are within error of each other in switch fluorescence ratio: 1.02 ± 0.017 for the first, 1.01 ± 0.015 for the second.

First: ATGAAGTGAA
Second: AGCGTGATAC
The switch fluorescence ratio of the first is lower: 1 ± 0.034 for the first, 4.4 ± 0.36 for the second.

CTGTAAGGTT and TATTGTCGTT are within error of each other in switch fluorescence ratio: 1.09 ± 0.14 for the first, 1.02 ± 0.029 for the second.

AATTTTTTTT and GCGTTGGGAC are within error of each other in switch fluorescence ratio: 1.01 ± 0.043 for the first, 1.042 ± 0.0036 for the second.

First: GCGTCAACTG
Second: GCTTTTGGCT
The switch fluorescence ratio of the first is higher: 1.04 ± 0.023 for the first, 0.992 ± 0.023 for the second.

TTACCAGAGT and TCGGAGGGGC are within error of each other in switch fluorescence ratio: 1.02 ± 0.011 for the first, 1.03 ± 0.013 for the second.

CTACATGACT and TCGAGATAGA are within error of each other in switch fluorescence ratio: 1.13 ± 0.025 for the first, 1.1 ± 0.11 for the second.

CACTAGATGG and AATGGTTATC are within error of each other in switch fluorescence ratio: 0.992 ± 0.02 for the first, 0.9753 ± 0.0046 for the second.

GTTCTTTGGG and TGGGGGGCGC are within error of each other in switch fluorescence ratio: 0.995 ± 0.013 for the first, 0.989 ± 0.025 for the second.

TACGGGGACT and TACGAAAAGA are within error of each other in switch fluorescence ratio: 1.11 ± 0.028 for the first, 1.04 ± 0.052 for the second.

Compared with AGATAAGTTT, CCACTGGGCG is higher in switch fluorescence ratio: 1.01 ± 0.034 for the first, 1.07 ± 0.014 for the second.

Compared with TTTGACGGTA, AGACAAGGGT is lower in switch fluorescence ratio: 1.09 ± 0.016 for the first, 1.01 ± 0.018 for the second.

GTGTGGGGGA showed a switch fluorescence ratio of 1.02 ± 0.04.
